Test results: publication doi:10.1101/2020.07.09.195545
Read-outs that look alike come from different tables or passages of the source.

Tests used:
rLCRF-SBP [1] = target: T1, rLCRF-SBP (Chlamydomonas reinhardtii, UniProt A0A2K3E5K7 866-1032); assay: EMSA
rLCRF-SBP [2] = target: T1, rLCRF-SBP; assay: EMSA; remark: listed apart in the source

Binder | binding result (rLCRF-SBP [1]) | binding result (rLCRF-SBP [2])
mutated GTAC-consensus 30 bp (shuffled core) (dsDNA) DNA 1: GTCGCCACTGCGAGATCCACTGAGAGATCG DNA 2: CGATCTCTCAGTGGATCTCGCAGTGGCGAC | no binding | –
GTAC-consensus 30 bp (dsDNA) DNA 1: GTCGCCGTACCGAGATCCGTACAGAGATCG DNA 2: CGATCTCTGTACGGATCTCGGTACGGCGAC | – | binds
